From article PMC8201785

Experiments:
CA09 HA = assay: BLI
PR34 HA = assay: BLI

**Q.** What does the source list for MEDI8852?
**A.** Kd (CA09 HA): 0.502 nM; koff (CA09 HA): 0.000147 s⁻¹; Kd (PR34 HA): 1.36 nM; koff (PR34 HA): 0.00023 s⁻¹
